Blank lines part the entries; values can stand above or below the binder they belong to.
How the values were obtained:
EGFR-ECD [1] = molecular target: T1, EGFR-ECD (UniProt P00533); assay: BLI; sterile filtered Expi293F cell culture supernatants of the light chain variants paired with the parental FEB4 heavy chain; conditions: one partner purified
T1 construct: epidermal growth factor receptor (EGFR), extracellular domain (EGFR-ECD); With anti-human-Fc (AHC) sensors it was probably the His-tagged one; also called epidermal growth factor receptor extracellular domain

PD-L1-ECD = molecular target: T2, PD-L1-ECD (Homo sapiens (; durvalumab …, UniProt Q9NZQ7); assay: BLI; affinity determination as previously described (54); purified antibodies (loaded onto AHC biosensors, as told for the anti-CD16a variants), antigen in solution; Octet RED96, 30 °C, 1000 rpm; conditions: both partners purified
T2 construct: also called His-tagged PD-L1; source: bought: R&D systems (His-tagged PD-L1)
T2 sequence (Q9NZQ7 19-238): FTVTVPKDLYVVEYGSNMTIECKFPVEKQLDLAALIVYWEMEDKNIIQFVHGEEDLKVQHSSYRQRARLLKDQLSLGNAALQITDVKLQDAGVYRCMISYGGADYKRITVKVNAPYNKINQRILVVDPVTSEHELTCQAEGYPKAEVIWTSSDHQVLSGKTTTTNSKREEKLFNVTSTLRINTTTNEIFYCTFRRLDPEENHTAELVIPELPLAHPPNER

EGFR-ECD [2] = molecular target: T1, EGFR-ECD; assay: as above; conditions: both partners purified

binding result (EGFR-ECD [1]): binds
B1: FEB4 (antibody, V domains shown)
VH: AVTLDESGGGLQTPGGALSLVCKASGFTFSSHGMLWVRQAPGKGLEFVAGISTDGSSTSYGAPVKGRATISRDNGQSTVRLQLNNLRAEDTGTYYCAKDAYRCRNCAEDIDAWGHGTEVIVSS
VL: ALTQPSSVSANPGETVKITCSGGYSDDGSYYYYGWFQQKSPGSAPVTVIYDNTNRPSNIPSRFSGSTSGSTSTLTITGVRAEDEAVYYCGSIDTGYAGIFGAGTTLTVL
notes: IgG1 constant region (CH1, hinge, Fc); standard IgG1 format; also called parental FEB4 mAb; parental antibody; copies: 2 + 2

Kd (PD-L1-ECD): 3 nM
B2: ICI2 (antibody, V domains shown)
VH: AVTLDESGGGLQTPGGALSLVCKASGFDFSSYDMAWVRQAPGKGLEWVAGIKSNGPWTNYGAAVKGRATISRDNGQSTVRLQLNNLRAEDTAIYYCAKPGAGYVGWDAAGTIDSWGHGTEVIVSS
VL: ALTQPSSVSANPGETVKITCSGGGYDGSYYYGWYQQKSPGSAPVTVIYDNTNRPSNIPSRFSGSLSGSTNTLTITGVQAEDEAVYFCGGYDRSGGIFGGGTTLTVL
notes: VH of ICI2 (chicken-derived); IgG1 constant region (CH1, hinge, Fc) with the LALA mutation; as the light chain of m10 (dFEB1-VL common light chain); IgG1 LALA chimeric antibody; source: Expi293F, purified (Protein A chromatography); copies: 2 + 2

Kd (EGFR-ECD [2]): 6.4 nM | fold improvement in KD against the parental FEB4 (EGFR-ECD [2]): 5 fold
B3: dFEB4-1 (antibody, V domains shown)
VH: AVTLDESGGGLQTPGGALSLVCKASGFTFSSHGMLWVRQAPGKGLEFVAGISTDGSSTSYGAPVKGRATISRDNGQSTVRLQLNNLRAEDTGTYYCAKDAYRCRNCAEDIDAWGHGTEVIVSS
VL: ALTQPSSVSANPGETVKITCSGGGYDGSYYYGWYQQKSPGSAPVTVIYDNTNRPSNIPSRFSGSLSGSTNTLTITGVQAEDEAVYFCGGYDRSGGIFGGGTTLTVL
notes: as the heavy chain of m8 (parental FEB4 heavy chain); dFEB1-VL, chicken VL from the light chain shuffling; human lambda CL; IgG; also called parental FEB4 heavy chain with dFEB1-VL; source: Expi293F, co-transfected; sterile filtered culture supernatant, and purified (Protein A chromatography); copies: 2 + 2

Source: publication PMC8141644, “Design of a Trispecific Checkpoint Inhibitor and Natural Killer Cell Engager Based on a 2 + 1 Common Light Chain Antibody Architecture” (Frontiers in Immunology, 2021)
